Test results reported in US20150074844A1 (PURDUE RESEARCH FOUNDATION, published 2015).

T1: PYL13-cLUC (Arabidopsis thaliana, UniProt Q9SN51 1-164)
T1 construct: LUC complementation assay in protoplasts; also called PYL13 fused to the C-terminal domain of LUC; not shown: C-terminal domain of firefly luciferase
T1 sequence: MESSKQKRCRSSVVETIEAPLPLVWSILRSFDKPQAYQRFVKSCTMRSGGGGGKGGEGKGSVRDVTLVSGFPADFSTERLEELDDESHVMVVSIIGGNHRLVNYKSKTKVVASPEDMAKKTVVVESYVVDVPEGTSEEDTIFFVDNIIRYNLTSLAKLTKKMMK

T2: PP2CA-HA (Arabidopsis, UniProt P49598 1-399)
T2 construct: also called hemagglutinin (HA)-tagged PP2CA; not shown: HA tag
T2 sequence (looked up): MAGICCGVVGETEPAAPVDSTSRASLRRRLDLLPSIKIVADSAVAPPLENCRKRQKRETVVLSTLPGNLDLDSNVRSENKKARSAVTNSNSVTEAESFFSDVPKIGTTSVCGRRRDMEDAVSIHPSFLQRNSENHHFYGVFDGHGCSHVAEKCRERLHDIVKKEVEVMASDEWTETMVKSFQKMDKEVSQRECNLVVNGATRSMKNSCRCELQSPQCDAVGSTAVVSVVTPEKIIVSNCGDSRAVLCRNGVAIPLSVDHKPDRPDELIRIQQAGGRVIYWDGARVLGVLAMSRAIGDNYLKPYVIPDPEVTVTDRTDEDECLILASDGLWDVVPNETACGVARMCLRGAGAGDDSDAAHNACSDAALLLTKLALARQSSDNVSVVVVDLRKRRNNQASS

T3: PYR1 fused to the GAL4-DNA binding domain (BD) (Arabidopsis thaliana, UniProt O49686 1-191)
T3 construct: Yeast two-hybrid construct
T3 sequence: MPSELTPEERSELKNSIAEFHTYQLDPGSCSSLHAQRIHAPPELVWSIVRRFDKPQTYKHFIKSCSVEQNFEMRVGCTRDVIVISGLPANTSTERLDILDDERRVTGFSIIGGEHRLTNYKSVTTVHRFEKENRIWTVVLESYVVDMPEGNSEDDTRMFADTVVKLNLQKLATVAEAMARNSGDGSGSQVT

T4: PYL3 fused to the GAL4-DNA binding domain (BD) (Arabidopsis thaliana, UniProt Q9SSM7 1-209)
T4 construct: Yeast two-hybrid construct
T4 sequence: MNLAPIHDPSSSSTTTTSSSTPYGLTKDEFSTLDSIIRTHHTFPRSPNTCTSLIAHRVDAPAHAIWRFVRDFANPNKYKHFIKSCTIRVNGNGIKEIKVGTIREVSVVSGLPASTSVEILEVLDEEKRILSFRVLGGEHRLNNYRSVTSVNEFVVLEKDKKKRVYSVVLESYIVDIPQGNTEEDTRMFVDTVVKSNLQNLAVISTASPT

T5: PYL6 fused to the GAL4-DNA binding domain (BD) (Arabidopsis thaliana, UniProt Q8S8E3 1-215)
T5 construct: Yeast two-hybrid construct
T5 sequence: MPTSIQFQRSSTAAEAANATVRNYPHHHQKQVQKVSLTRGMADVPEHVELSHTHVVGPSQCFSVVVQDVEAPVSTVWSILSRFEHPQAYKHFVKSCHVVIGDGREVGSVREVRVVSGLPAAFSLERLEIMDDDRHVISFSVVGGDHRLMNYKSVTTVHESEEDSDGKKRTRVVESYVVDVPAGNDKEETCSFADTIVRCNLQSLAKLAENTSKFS

T6: PYL4 fused to the GAL4-DNA binding domain (BD) (Arabidopsis thaliana, UniProt O80920 1-207)
T6 construct: Yeast two-hybrid construct
T6 sequence: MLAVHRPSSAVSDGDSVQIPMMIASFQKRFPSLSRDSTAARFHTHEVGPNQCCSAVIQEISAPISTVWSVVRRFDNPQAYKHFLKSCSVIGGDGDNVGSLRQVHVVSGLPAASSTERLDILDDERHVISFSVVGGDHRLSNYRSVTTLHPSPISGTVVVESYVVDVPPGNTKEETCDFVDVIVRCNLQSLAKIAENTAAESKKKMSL

B1: PYL11 fused to the GAL4-DNA binding domain (BD) (receptor, not shown: small tags and cut ends)
chain: METSQKYHTCGSTLVQTIDAPLSLVWSILRRFDNPQAYKQFVKTCNLSSGDGGEGSVREVTVVSGLPAEFSRERLDELDDESHVMMISIIGGDHRLVNYRSKTMAFVAADTEEKTVVVESYVVDVPEGNSEEETTSFADTIVGFNLKSLAKLSERVAHLKL
notes: Yeast two-hybrid construct
B2: PYL11-nLUC (receptor)
chain: B1 chain
notes: LUC complementation assay in protoplasts; also called PYLs-nLUC; not shown: N-terminal domain of firefly luciferase
B3: c-myc-tagged PYL13 (other)
chain: T1 sequence
notes: Transiently expressed in Col-0 protoplasts for co-IP; also called c-myc-PYL13; MYC-PYL13; not shown: c-myc tag
B4: PYL13 fused to the GAL4-activating domain (AD) (other, not shown: large carriers)
chain: T1 sequence
notes: also called AD-PYL13
B5: PYL12 fused to the GAL4-DNA binding domain (BD) (receptor, not shown: large carriers; small tags and cut ends)
chain: MKTSQEQHVCGSTVVQTINAPLPLVWSILRRFDNPKTFKHFVKTCKLRSGDGGEGSVREVTVVSDLPASFSLERLDELDDESHVMVISIIGGDHRLVNYQSKTTVFVAAEEEKTVVVESYVVDVPEGNTEEETTLFADTIVGCNLRSLAKLSEKMMELT
notes: Yeast two-hybrid construct

What was measured:
[1] = target: ABI1 without tag (purified recombinant) (Arabidopsis) (UniProt P49597); experiment: cell-based or functional assay
Chain of ABI1 without tag (purified recombinant) (Arabidopsis) (P49597 whole entry): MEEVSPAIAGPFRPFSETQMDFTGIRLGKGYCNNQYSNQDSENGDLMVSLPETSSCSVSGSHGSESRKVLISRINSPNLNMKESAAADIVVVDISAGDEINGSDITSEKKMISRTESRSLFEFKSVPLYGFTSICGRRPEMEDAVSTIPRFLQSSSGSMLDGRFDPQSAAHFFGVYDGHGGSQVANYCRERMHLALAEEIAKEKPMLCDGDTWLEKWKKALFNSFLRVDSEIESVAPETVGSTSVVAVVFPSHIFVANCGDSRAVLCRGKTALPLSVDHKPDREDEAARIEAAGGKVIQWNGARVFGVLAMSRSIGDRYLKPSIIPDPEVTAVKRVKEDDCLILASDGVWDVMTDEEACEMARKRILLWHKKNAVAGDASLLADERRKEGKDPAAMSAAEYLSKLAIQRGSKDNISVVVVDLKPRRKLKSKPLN

[2] = target: B4; experiment: yeast two-hybrid, growth on media lacking His and His/Ade, with and without ABA
Method: (§1) To confirm the interaction between PYL13 and PYL2/PYL9 and to determine whether PYL13 may bind with other PYLs, the interaction of PYL13 with PYLs was examined in yeast two-hybrid assays, as shown in FIG. 5. In this experiment, PYL13 interacted with PYR1, PYL1-4, PYL6, and PYL11-12 in an ABA-independent manner (FIG. 5A). PYL13 fused to the GAL4-activating domain (AD) was used as prey, and PYLs fused to the GAL4-DNA binding domain (BD) were used as baits. Interaction was determined by growth assay on media lacking His and His/Ade in the presence and absence of ABA. Dilutions (10⁻¹, 10⁻², and 10⁻³) of saturated cultures were spotted onto the plates, which were photographed after five days. […] Without wishing to be bound by theory, the lack of interaction between […] and PYL9 may be caused by the cellular differences between yeast and Arabidopsis or because of indirect interactions between the two proteins in Arabidopsis.

PYL13-cLUC = target: T1, PYL13-cLUC; experiment: firefly luciferase complementation in protoplasts (stronger group)
Method: To further characterize the interactions between PYL13 and PYLs in vivo, their interactions in protoplasts were examined by the firefly luciferase (LUC) complementation assay. PYL13 was fused to the C-terminal domain of LUC (PYL13-cLUC), and PYLs were fused to the N-terminal domain of LUC (PYLs-nLUC), and co-expressed in protoplasts. After transfection, protoplasts were incubated overnight under light at room temperature, and the LUC activities in living protoplasts were measured. Error bars indicate s.e.m. (n=6). […] PYL13 binds more strongly to PYR1, PYL1-5, PYL7, and PYL10-11 than to PYL6, PYL8-9, or PYL13 (FIG. 5B).

PP2CA-HA = target: T2, PP2CA-HA; experiment: co-IP from protoplasts with anti-HA agarose, western blot; with or without 10 µM ABA
Text: Coimmunoprecipitation (co-IP) assays using ABI1-HA and PP2CA-HA as baits captured c-myc-PYL13 in an ABA-independent manner (FIG. 3C). The binding of PP2CA with PYL13 again appeared much stronger than that of ABI1 with PYL13. […] Total soluble proteins (input) were extracted from Arabidopsis protoplasts that transiently expressed the indicated constructs. PP2C-interacting proteins were immunoprecipitated with anti-HA mouse antibodies and detected with anti-HA and anti-cMYC rabbit antibodies.
PP2CA-HA, ABI1-HA, and MYC-PYL13 plasmids (20 μg each) were transiently expressed in wild-type (Col-0) protoplasts. After transfection, protoplasts were incubated in WI buffer under light at room temperature for 16.5 h. Protoplasts were treated with 10 μM ABA for 1.5 h before they were harvested, frozen in liquid N2, and stored at −80° C. The frozen protoplasts were resuspended in 1 ml of immunoprecipitation (IP) buffer containing 50 mM Tris-HCl, pH 7.4, 150 mM NaCl, 1 mM EDTA, 0.1% (v/v) Triton X-100, and 1× protease inhibitor cocktail (SIGMA) with or without 10 μM ABA and then centrifuged at 21000 g for 30 min at 4° C. The supernatant was used as input and was incubated for 4 h at 4° C. with 30 μl of monoclonal anti-HA-agarose antibody produced in mouse (SIGMA, A2095). […]

[3] = target: T3, PYR1 fused to the GAL4-DNA binding …; experiment: yeast two-hybrid, growth on media lacking His and His/Ade, with and without ABA
Method: as §1

[4] = target: T4, PYL3 fused to the GAL4-DNA binding …; experiment: as above
Method: as §1

[5] = target: T5, PYL6 fused to the GAL4-DNA binding …; experiment: as above
Method: as §1

[6] = target: T6, PYL4 fused to the GAL4-DNA binding …; experiment: as above
Method: as §1

Question: With “PYL2 (purified recombinant protein, phosphatase assay) (from UniProt O80992 1-190) (receptor)” as the molecule, how does the ABI1 phosphatase activity (pNPP, A405, % of ABI1 without ABA and PYLs), 10 µM ABA, 0.3 µM each [1] read?
Answer: 50%

Question: How did the ABI1 phosphatase activity (pNPP, A405, % of ABI1 without ABA and PYLs), 10 µM ABA, 0.3 µM each [1] turn out when “PYL1 (purified recombinant protein, phosphatase assay) (from UniProt Q8VZS8 1-221) (receptor)” was run?
Answer: 67%

Question: How did the ABI1 phosphatase activity (pNPP, A405, % of ABI1 without ABA and PYLs), 10 µM ABA [1] turn out when “PYL13-PYL2 protein complex (from UniProt Q9SN51 1-164; O80992 1-190)” was run?
Answer: 78%

Question: Which ABI1 phosphatase activity (pNPP, A405, % of ABI1 without ABA and PYLs), 10 µM ABA [1] does the source give for “PYL13-PYL1 protein complex (from UniProt Q9SN51 1-164; Q8VZS8 1-221)” here?
Answer: 88%

Question: Does B1 bind [2]?
Answer: binds

Question: Does B2 bind (PYL13-cLUC)?
Answer: binds

Question: Does B3 bind (PP2CA-HA)?
Answer: binds

Question: Does B4 bind [3]?
Answer: binds

Question: Does B4 bind [4]?
Answer: binds

Question: Does B4 bind [5]?
Answer: binds

Question: Does B4 bind [6]?
Answer: binds

Question: Does B5 bind [2]?
Answer: binds
